We go through 16 sequences from the DeepSol protein solubility set.

A short description of the data set: soluble on expression in E. coli; label from the status in PepcDB or PDB records.
Consider “MKDDRYPSEWAQLALQKKQSVNWACERCGVQCLKPGEGKGLSTGDRYRLRMAVHHCDYDPGNNSPSNLKALCSPCHLYFHRRQRGNVIPGQLRLKFSFLILEHHHHHH”, for which the “soluble on expression in E. coli” value is on record as “soluble”. To “MRGSHHHHHHTDPALRAIPQISQAPGVVQLVLNFLQELEQQGFTGDTATSYADRLTMSTDNSIYQLLPDAVVFPRSTADVALIARLAAQERYSSLIFTPRGGGTGTNGQALNQGIIVDMSRHMNRIIEINPEEGWVRVEAGVIKDQLNQYLKPFGYFFAPELSTSNRATLGGMINTDASGQGSLVYGKTSDHVLGVRAVLLGGDILDTQPLPVELAETLGKSNTTIGRIYNTVYQRCRQQRQLIIDNFPKLNRFLTGYDLRHVFNDEMTEFDLTRILTGSEGTLAFITEARLDITRLPKVRRLVNVKYDSFDSALRNAPFMVEARALSVETVDSKVLNLAREDIVWHSVSELITDVPDQEMLGLNIVEFAGDDEALIDERVNALCARLDELIASHQAGVIGWQVCRELAGVERIYAMRKKAVGLLGNAKGAAKPIPFAEDTCVPPEHLADYIAEFRALLDSHGLSYGMFGHVDAGVLHVRPALDMCDPQQEILMKQISDDVVALTAKYGGLLWGEHGKGFRAEYSPAFFGEELFAELRKVKAAFDPHNRLNPGKICPPEGLDAPMMKVDAVKRGTFDRQIPIAVRQQWRGAMECNGNGLCFNFDARSPMCPSMKITQNRIHSPKGRATLVREWLRLLADRGVDPLKLEQELPESGVSLRTLIARTRNSWHANKGEYDFSHEVKEAMSGCLACKACSTQCPIKIDVPEFRSRFLQLYHTRYLRPLRDHLVATVESYAPLMARAPKTFNFFINQPLVRKLSEKHIGMVDLPLLSVPSLQQQMVGHRSANMTLEQLESLNAEQKARTVLVVQDPFTSYYDAQVVADFVRLVEKLGFQPVLLPFSPNGKAQHIKGFLNRFAKTAKKTADFLNRMAKLGMPMVGVDPALVLCYRDEYKLALGEERGEFNVLLANEWLASALESQPVATVSGESWYFFGHCTEVTALPGAPAQWAAIFARFGAKLENVSVGCCGMAGTYGHEAKNHENSLGIYELSWHQAMQRLPRNRCLATGYSCRSQVKRVEGTGVRHPVQALLEIIKGLCGR” belongs “soluble”.

Regarding “MGSDKIHHHHHHMPFLLSGHLSDQSCKAGTLPYKIRIVLILFLCPHMCLTNDEGSAVPATDLAAHQIHILYTDHHGWLYNWLRHKLGNACDAADIAQDTFMRILTRQQPVHLNEPRAYLSTIAHGLVIDHWRRRELERAWLETLASLPEPEAPAPETRLIFLEALIEIDRLLDSLKPRVRTTFLLAQLDGLTCPQIAERLGVSLSTVERYITKALRSCYMLRFEP”, the “soluble on expression in E. coli” value was “not soluble”. For the sequence “MSLRSVVSFNEGWSFHEGFGQRLLENFDAAKPVSLPHTAVELPFNYFDEKSYQRAFTYQKVLRWLPEFEGREVSLVFDAAMADSVVYLNGEEITAHKDGYTPFEARLTGKLLKGENLVTVKIDGSENPAIPPFGGRIDYLTYAGIYRDVWLKVTDPVSIRNLKIETADVLAPHKSASIRVDLANPEGRSFSATLTAALKQADGTVIATAATETIGNRTTLSLGGLTGITLWDITNPTLYEVTVELRTEHGSDRLSTRFGFRTAEFTPEGFLLNGKPLKLRGLNRHQAFPYVGYAAGRSAQERDADIMKSVLKCNIVRTSHYPQSKWFLDRCDAIGLLVFEEIPGWQHIGDADWQKESIENVRRMIERDWNHPSIIIWGVRINESQDSHDFYAETNRLARELDSTRQTGGVRYITESELLEDVYTMNDFILGNEELPGANRPRTVLRGQQENTGLSRKVPYLITEFNGHMHPTKIYDQEQRQAEHVRRHLEVLNAAYGDPDISGAIGWCMFDYNTHKDFGSGDRVCYHGVMDMFREPKFAAYAYISQCEPSEEIVMKPVTFWARGERNIGGVLPLIILTNCDEVELQYGALSKRVGPDRENYPHLPHPPVVLDHRHFTADELGTWGLEWIDGALTGFIAGEAVVSLNLAADPLPTTLEMVADSSTLKTRERDSTRVIIRALDQCGQRLPFMNDSISLKVHGPARIVGPTNVPLQGGTSGFWLEATGLVGEITVEAVSSRFAPVTLNVTAVAEGHHHHHH”, the “soluble on expression in E. coli” value was “soluble”. For “MKKEHQKTLTFEIITPVVMAGTYKDEPELRIPSIKGMLRWWFRFFYASHNQSIDKLREHENEIFGSTEKACQFYMHLKYSQKLTDAYLAMNKRYGRYNNIKRKALEKNDTFRIDFIYSPFFTYKKELNTTLQLLSFLGGIGARWRRGFGSIQLKNGEDYKSFDKLKEKIEKVLKGKGEYHHDGFININNVDIYLVKPKRDNFWIDSLGAMNNLRKKVYKEFKSETNIKAIACKPKGGSRAVSPLIIQIKKFSEGKFYGILIVYNEWDKYEEFKNFINNNSELSFEQLLKSKPRKI” the value was “soluble”. For “MYVIDTSAIISRNLNLLEGDLMFPSSVIGEIKKGKLRYMIDVLLPMIRVASPDHEYLKIVEETAAKTGDLMNLSQTDKDVLALALQYDATIVTDDYSIQNVASYLNLGFLNA” the value was “soluble”.

With “MAKAFEEQRRSPDLEALPFEDRIGLLVDREAAERDTRRLTTRLKIAALRQTACVEDVDLRTPRGIDRAVFAKLVEGRWIDRHENLLVTGATGLGKSWLACALGHKACRDNRSVLYHRVPRLFEALALARGDGRYARLLKSLGRAQLLILDDWGLSVLTAAERRDLLEILEDRHGRASTIVTSQLPWTPGMEPLGTPRSPTPFSIASSTTPTASSSPEKACENAAPKPSPLTANQNTDSISHRPAAALEHHHHHH”, the “soluble on expression in E. coli” value is reported as “not soluble”. To “MRLSILLLVAAHVANGLFGFGEKKTTQAPKISLGSEISIPHTDEDQDTGEIVIPFNDPSTTTTRRRTATTTGIPVISVGGIGLDRTRSTVDVRSFTTTINPRFTAATKRLPSSDRHSSSGCPNRIDAYTFGPDSDYAFYEQQVFKISNNRISDRTTLVEEFKDGPNQVNGALYDPEREILWLVDGRSVYGYKKDGSDNWKLQSVFPKELPSSIGFTPEAAVRWHNKHQLLLSNGGKFALYDEYWNKSLMTGRTESYFENLPDRVRGISTWNSQGHAHIYTQSLVFEYDSEMKKVTGDGVPLGDFWRC” belongs “not soluble”; to “MEKIWLDSYEKGVSAEIDITQYNSVSDVFRQSVEKFADQPAFQNMGKTLTYAETGKLATDFASYLQNVLKLPRGERVAIMLPNVLQYPVALFGILQAGLVAVNTNPLYTPRELEHQLKDSGATAIIVLENFANTLELVLPRTQIKHVIVASVGEMFGLLKGSLINFVIRKIKKMVPEYRIRETVSFQTALKEGAKHVFQPVALNREDTALLQYTGGTTGVAKGAVLSHGNICANMLQAKEWIKNQLREGKETVIAALPLYHIFALTVNLMIFANAGSKIILITNPRDMKGFIGELKKQRVNVFIGVNTLFNAMVNRPDFAEVDFSELRLTLGGGMATQKAVAEKWKKITGTPIVEAYGLTEASPGVCCNPLNIESYSGSIGLPVSSTEVELRDANGKEVPVGQPGELWVKGPQVMQGYWNRPEETAKAIDARGFLETGDIAVMDEKGWLKLVDRKKDLVVVSGFNVYPNEIEEVIAHHGKVMEVACIGVPDEKTGEALKVFVVKKDPSLTKEELIAFCRTELTAYKVPKNIEFRDELPKSNVGKILRRELRQSTGK”, “not soluble”; to “MGSDKIHHHHHHMVEPMTPRFKYTKASQENIQQLGNILEQCFVMSFGDSEIYVKGIGLENFRVIYREQKVAGGLAILPMGQWWGGQRVPMAGIAAVGIAPEYRGDGAAIALIQHTLQEISEQDIPISVLYPATQRLYRKAGYEQAGSSCVWEIPTDSIQIQHASLPLEPVVLKNNPIFHELYQQQAQLTHGYLDRHPAIWQGLNRTLDTETLYSYLIGDKDKPQGYIIFTQERTRDGSILRIRDWVTLSNPAVQSFWTFIANHRSQIDKVTWKSSVIDALTLLLPEQSATIRSQDRWMLRIVNVCKALEARGYPLGVEAELHLEVQDDLLATNQGKFILSVANGKSEVTKGGKGELQLDIKGLASLYTSLFTPRQLQLTGKLQATETALLKATQIFAGESPWMIDFF”, “not soluble”. For “MQHPTTKYVKLSFALIFLFNIASASIFSDDVTEATSSPDTTTTAVAIRAKRQCGGMGGCCGGMSGCGCGSMGMCGQTCCPSAPPPCSCGTPGCMQCVQQTVLVPVTTTTCCKCCQPVCTNACTNGGGCSCGCTRGGCSRKRRSLLAIASEEMSKRGDVMV” the value was “not soluble”; for “MASFPFLMTPETMNKLVTPNSASISSSSSSPSTSTSFSIDTLLSNPLAGIPQLHNFQDPFGAVGAAAAASALPWQFHPANYPFFSMLCGPLMPPFMAPYHHQHYASRRKRRHRTIFSEEQLNILETTFSTTHYPDATTREELAVQCSLKEERVEVWFKNRRAKERKQKKDDSRTSKHSGDDSECDESDEDTRKVKRIKRENSSGKETSSPESKASLKTSHSENLVLEPC”, “not soluble”. Take “MESAIKKRRLEDSKLLGDLWQRLSHSRKKLMEIFHIILNQICLLPILESSCDNIHGFIEEFLQIFSSLLQEKRFLRDYDALFPVAEDISLLQQASSVLDETRTAYILQAVESAWEGVDRRKATDAKDPSVIEEPNGEPNGVTVTAEAVSQASSHPENSEEEECMGAAAAVGPAMCGVELDSLISQVKDLLPDLGEGFILACLEYYHYDPEQVINNILEERLAPTLSQLDRNLDREMNPDPTPLLTSRHNVFQNDEFDVFSRDSVDLSRVHKGKSTRKEENTRSLLNDKRAVAAQRQCYEQYSVVVEEVPLQPGESLPYHSVYYEDEYDDTYDGNQVGANDADSDDELISRRPFTIPQVLRTKVPREGQEEDDDDEEDDADEEAPKPDHFVQDPAVLREKAEARRMAFLAKKGYRHDSSTAVAGSPRGHGQSRETTQERRKKEANKATRANHNRRTMADRKRSKGMIPS”: the “soluble on expression in E. coli” value is listed as “soluble”. As for “MVLASSSAFALKDDVNQPINIVSDNQSLDMEKSVVTFTDNVVITQGSIVIKANKVVITRPAEKSGKKETVEAFGTPVTFHQQLDNGKPVDGKANKVHYDLGNEFLTLTNNAELKQLDSKINGSVITYDVKKQQLKANGNGKSRVTTVLIPSQLQQAKGK”, the “soluble on expression in E. coli” value is listed as “not soluble”.

As for “MSLKASLLQEQSLRLAMTQELRQAITMLQYNVQELSEFLYEQSLENPLIELGGFEREKKKSSNNSKSTSKQVENQMEIYSVDSTTIQQHLLNQIQYYKIEEEERKVASFIIMNMDGNGYLQETNEELANLLSAPLHVVDRSVELVQSLEPAGVGARNIQECLTLQLKRLQRRNGLAEEVVEDHFAYFVKKDWRKLVQVLKCSNEELQDAVNCITSLQPKPGLAFSSDKPLYIVPDMAVKKDGDRLVLQMNERNMPRIEIHSEYSALLNNSESEVASYVSEKYQHVQWIMRSLKQRKQTLLQVMTIIMEKQRDFFWKGPEYLKPLALKEVAEELSVHESTISRATRNKYVQTPHGLFEMKSFFSNAVSTTEDEAVSTKRVKQFIQTLVEAENKKKPLSDQKISKLLEEEHEIVISRRTVAKYREQMHIPASSLRKTIGEGHHHHHH”, the “soluble on expression in E. coli” value was “not soluble”.

Regarding “MSLASISPQGSMSLLSQLEIERLKASSNSQLYKLFRNCCLAVLNAGSHTDSSADIYDSYKDFEVNIIRRERGIKLELIEPPEEAFVDGEVIVGIRELLESVLRDILFTGERYSETDLEHADSATLTHVVFDILRNARTLRPQEEPNMVVCWGGHSINEIEYKYTKDVGYHIGLRGLNICTGCGPGAMKGPMKGATIGHAKQRVEGGRYLGLTEPGIIAAEPPNPIVNELVILPDIEKRLEAFVRCAHGIVIFPGGAGTAEELLYLLGILMHPDNQRQSLPVILTGPASSRDYFEALDEFIGATIGDEARQLYKIIIDDPAAVAQHMHAGMAAVKQYRRDSGDAYYFNWTLKINEEFQRPFSPTHENVAALNLHPDQPKERLAADLRRAFSAIVAGNVKDEGIRQIRKNGVFTIHGEQSLMKRLDELLRAFVEQGRMKLPGSVYNPCYKVITDEGHHHHHH”, the “soluble on expression in E. coli” value was “soluble”.
